One data set concerns the target T1, eIF4E (His6x-eIF4E) (Saccharomyces cerevisiae, UniProt P07260).
T1 construct: gene CDC33; recombinant, N-terminal His6x tag kept, codon-optimized gene in pET3a, E. coli BL21 Rosetta 2 (DE3)
T1 sequence (P07260 1-213): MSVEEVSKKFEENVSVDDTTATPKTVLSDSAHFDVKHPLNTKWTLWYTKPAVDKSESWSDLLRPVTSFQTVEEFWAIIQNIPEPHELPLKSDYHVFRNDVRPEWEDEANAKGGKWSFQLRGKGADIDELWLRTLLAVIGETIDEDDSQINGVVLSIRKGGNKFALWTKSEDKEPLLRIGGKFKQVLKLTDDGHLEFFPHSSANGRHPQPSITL
Put plainly: microscale thermophoresis, RED-tris-NTA labelled protein. The format is binding. Conditions: read-out: Cap-analog / MST. The text has this:
microscale thermophoresis, RED-tris-NTA labelled protein on eIF4E (His6x-eIF4E)

In data set [1] the target is T2, eIF4E/p20 complex (eIF4E/His6x-p20) (Saccharomyces cerevisiae, UniProt P07260).
T2 construct: gene CDC33; recombinant complex, untagged eIF4E (pET28a) co-expressed with His6x-p20 (pET3a, tag kept) in E. coli BL21 Rosetta 2 (DE3); with Cap-associated protein CAF20
T2 sequence (P07260 1-213): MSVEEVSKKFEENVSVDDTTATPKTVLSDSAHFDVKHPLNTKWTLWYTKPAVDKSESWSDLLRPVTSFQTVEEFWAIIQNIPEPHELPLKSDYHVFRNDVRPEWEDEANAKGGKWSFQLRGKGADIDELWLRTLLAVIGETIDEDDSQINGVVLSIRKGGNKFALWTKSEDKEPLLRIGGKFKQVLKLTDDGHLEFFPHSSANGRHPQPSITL
T2 sequence (P12962 1-161 partner): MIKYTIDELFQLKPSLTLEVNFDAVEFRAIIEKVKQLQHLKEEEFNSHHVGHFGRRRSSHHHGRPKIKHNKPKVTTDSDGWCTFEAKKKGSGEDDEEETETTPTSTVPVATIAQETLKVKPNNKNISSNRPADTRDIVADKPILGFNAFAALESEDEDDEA
The description is as above. The format is binding. Conditions: read-out: Cap-analog / MST. The text has this: microscale thermophoresis, RED-tris-NTA labelled protein on eIF4E/p20 complex (eIF4E/His6x-p20)

Data set [2] deals with T3, His6x-eIF4E (Saccharomyces cerevisiae) (UniProt P07260).
T3 sequence: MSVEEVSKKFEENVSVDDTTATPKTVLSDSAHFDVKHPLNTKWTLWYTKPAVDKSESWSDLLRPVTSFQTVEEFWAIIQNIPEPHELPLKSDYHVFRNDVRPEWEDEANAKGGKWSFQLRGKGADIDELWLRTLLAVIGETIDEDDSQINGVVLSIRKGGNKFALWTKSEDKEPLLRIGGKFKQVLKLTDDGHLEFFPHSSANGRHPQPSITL
Put plainly: MST. The note with it: 5' m7GpppG cap (Vaccinia Capping System), Buffer A: 10 mM sodium phosphate pH 7.5, 100 mM NaCl, 2.5 mM MgCl2, 1 mM DTT, 0.05% NP40, MST at 25 C (proteins for capped RNA MST RED-tris-NTA labeled in …).

The target of data set [3] is T3, His6x-eIF4E (Saccharomyces cerevisiae). Put plainly: EMSA. Conditions: 5' m7GpppG cap (Vaccinia Capping System); Buffer A: 10 mM sodium phosphate pH 7.5, 100 mM NaCl, 2.5 mM MgCl2, 1 mM DTT, 0.05% NP40; MST at 25 C (proteins for capped RNA MST RED-tris-NTA labeled in …).
The target in the next data set is T4, His6x-eIF4E (Saccharomyces cerevisiae, UniProt P07260 1-213).
T4 sequence: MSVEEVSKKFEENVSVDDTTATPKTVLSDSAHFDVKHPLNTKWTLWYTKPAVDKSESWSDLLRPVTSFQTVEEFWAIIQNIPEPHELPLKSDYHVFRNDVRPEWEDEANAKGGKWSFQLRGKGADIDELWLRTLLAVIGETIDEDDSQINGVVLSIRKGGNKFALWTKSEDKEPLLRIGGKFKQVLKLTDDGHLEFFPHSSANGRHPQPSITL
In words: MST; up to 96 uM protein; Buffer A: 10 mM sodium phosphate pH 7.5, 100 mM NaCl, 2.5 mM MgCl2, 1 mM DTT, 0.05% NP40; MST at 25 C (proteins for capped RNA MST RED-tris-NTA labeled in buffer B: 20 mM HEPES-KOH pH 7.5, 50 mM NaCl, 1 mM DTT); EMSA 1.5% agarose, 1x TBE, temperature not stated. The note with it: protein: recombinant; tags: N-terminal His6x; label: 3' FAM.

With `C[n+]1cn([C@@H]2O[C@H](COP(=O)(O)OP(=O)(O)OP(=O)(O)OC[C@H]3O[C@@H](n4cnc5c(=O)[nH]c(N)nc54)[C@H](O)[C@@H]3O)[C@@H](O)[C@H]2O)c2nc(N)[nH]c(=O)c21` [m^7GpppG], the Kd was found to be 425 nM on eIF4E (His6x-eIF4E) and 420 nM in data set [1].
With “GGGAACAAAAGCUGGUAAUCAAGAAUUACAAGAAACAAAAAUUCAAGUAAAUAACAGAUAAUAC [capped SSA1 5'UTR RNA, 64 nt]”, the Kd in data set [2] came out at 226 nM; in data set [2] (no peptide, control of the peptide experiment), 230 nM; in data set [3] it was 275 nM.
On to GUAUUACAAGAAACAAAAAUUCAAGUAAAUAACAGAUAAU (ssRNA) [uncapped SSA1 5'UTR RNA, 40 nt], for which the binding result with His6x-eIF4E is “no binding”.

The values above are taken from publication PMC5928113, “Properties of the ternary complex formed by yeast eIF4E, p20 and mRNA” (Scientific Reports, 2018).
